Laboratory results from patent publication US20140087995A1 (published 2014).
Numbered stars: 1 amine (or outer) side, 2 acyl side, 3 side chain; on linkers, the order of the positions; unused ones are H or OH. Bridge positions count the residues as written; N and C are the ends. Side chains are listed from the residue outwards. Ends that are not written are not given here. * marks the point of attachment. C20 diacid = O=C(O)CCCCCCCCCCCCCCCCCCC(=O)*; C18 diacid = O=C(O)CCCCCCCCCCCCCCCCC(=O)*; C16 diacid = O=C(O)CCCCCCCCCCCCCCC(=O)*; γGlu = O=C(O)[C@H](CCC(=O)[*:2])N[*:1]; C14 diacid = O=C(O)CCCCCCCCCCCCC(=O)*

T1: rat amylin receptor (rat calcitonin receptor + rat RAMP 3) (rat, UniProt P32214 25-516; Q9JJ73 23-147)
T1 construct: whole, on cells; Membranes prepared from transiently transfected BHK tk'ts 13 cells; also called rAmylin-R; rat amylin 3(a) receptor
T1 sequence (looked up) 1: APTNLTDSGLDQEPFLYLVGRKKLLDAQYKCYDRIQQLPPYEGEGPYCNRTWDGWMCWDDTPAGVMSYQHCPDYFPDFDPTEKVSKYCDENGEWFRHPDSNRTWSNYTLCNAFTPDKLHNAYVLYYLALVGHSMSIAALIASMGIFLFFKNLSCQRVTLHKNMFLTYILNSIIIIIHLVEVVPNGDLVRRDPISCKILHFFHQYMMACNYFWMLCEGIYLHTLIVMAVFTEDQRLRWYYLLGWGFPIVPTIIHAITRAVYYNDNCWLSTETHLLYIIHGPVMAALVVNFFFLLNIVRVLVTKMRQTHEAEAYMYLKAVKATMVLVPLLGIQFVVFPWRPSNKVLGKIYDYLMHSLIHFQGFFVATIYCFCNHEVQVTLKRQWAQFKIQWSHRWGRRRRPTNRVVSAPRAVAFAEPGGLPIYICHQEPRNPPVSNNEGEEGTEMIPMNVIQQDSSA
T1 sequence (looked up) 2: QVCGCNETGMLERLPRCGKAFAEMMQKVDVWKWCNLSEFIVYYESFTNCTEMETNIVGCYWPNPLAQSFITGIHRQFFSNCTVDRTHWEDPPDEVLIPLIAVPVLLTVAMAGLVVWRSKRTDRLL

T2: rat calcitonin receptor (rat, UniProt P32214 25-516)
T2 construct: whole, on cells; Membranes prepared from transiently transfected BHK tk'ts 13 cells; also called rCTR; rat calcitonin (a) receptor
T2 sequence (looked up): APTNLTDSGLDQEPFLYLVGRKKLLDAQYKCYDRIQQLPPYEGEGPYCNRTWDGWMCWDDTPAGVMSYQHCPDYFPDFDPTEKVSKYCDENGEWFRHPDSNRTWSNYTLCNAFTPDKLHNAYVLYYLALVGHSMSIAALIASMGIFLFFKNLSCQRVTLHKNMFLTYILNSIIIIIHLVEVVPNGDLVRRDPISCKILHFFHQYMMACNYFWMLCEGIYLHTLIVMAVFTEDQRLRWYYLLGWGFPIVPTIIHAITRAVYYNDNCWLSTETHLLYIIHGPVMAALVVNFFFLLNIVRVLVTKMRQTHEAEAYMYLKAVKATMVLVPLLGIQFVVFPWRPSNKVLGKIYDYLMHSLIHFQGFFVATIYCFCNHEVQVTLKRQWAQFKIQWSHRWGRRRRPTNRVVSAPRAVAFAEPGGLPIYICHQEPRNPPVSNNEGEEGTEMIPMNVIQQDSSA

T3: human calcitonin receptor (human, UniProt P30988 25-474)
T3 construct: whole, on cells; Membranes from stably transfected BHK cells; also called hCTR; hCT
T3 sequence (looked up): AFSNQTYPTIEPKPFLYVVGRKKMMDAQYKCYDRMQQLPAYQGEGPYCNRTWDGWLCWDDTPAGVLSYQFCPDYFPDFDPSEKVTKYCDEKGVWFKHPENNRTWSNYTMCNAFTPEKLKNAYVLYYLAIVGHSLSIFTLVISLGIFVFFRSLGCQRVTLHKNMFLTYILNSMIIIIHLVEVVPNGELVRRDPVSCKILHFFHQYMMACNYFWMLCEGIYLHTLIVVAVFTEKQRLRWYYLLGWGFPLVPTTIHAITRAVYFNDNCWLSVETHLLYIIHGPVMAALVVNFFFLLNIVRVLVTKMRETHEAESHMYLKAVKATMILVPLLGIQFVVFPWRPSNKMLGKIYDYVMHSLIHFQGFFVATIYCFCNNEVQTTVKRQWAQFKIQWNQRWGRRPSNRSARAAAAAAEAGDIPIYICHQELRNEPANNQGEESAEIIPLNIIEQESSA

B1: N^ε1-[(4S)-4-carboxy-4-(13-carboxytridecanoylamino)butanoyl]-[Arg17,Pro21,Pro27,His34]-h-amylin (peptide)
peptide: K([γGlu-C14 diacid])CNTATCATQRLANFLRHSSPNFGAIPSSTNVGHNTY-NH2
modifications: disulfide 2-7; N-terminus assumed
SMILES: CC[C@H](C)[C@H](NC(=O)[C@H](C)NC(=O)CNC(=O)[C@H](Cc1ccccc1)NC(=O)[C@H](CC(N)=O)NC(=O)[C@@H]1CCCN1C(=O)[C@H](CO)NC(=O)[C@H](CO)NC(=O)[C@H](Cc1c[nH]cn1)NC(=O)[C@H](CCCNC(=N)N)NC(=O)[C@H](CC(C)C)NC(=O)[C@H](Cc1ccccc1)NC(=O)[C@H](CC(N)=O)NC(=O)[C@H](C)NC(=O)[C@H](CC(C)C)NC(=O)[C@H](CCCNC(=N)N)NC(=O)[C@H](CCC(N)=O)NC(=O)[C@@H](NC(=O)[C@H](C)NC(=O)[C@@H]1CSSC[C@H](NC(=O)[C@@H](N)CCCCNC(=O)CC[C@H](NC(=O)CCCCCCCCCCCCC(=O)O)C(=O)O)C(=O)N[C@@H](CC(N)=O)C(=O)N[C@@H]([C@@H](C)O)C(=O)N[C@@H](C)C(=O)N[C@@H]([C@@H](C)O)C(=O)N1)[C@@H](C)O)C(=O)N1CCC[C@H]1C(=O)N[C@@H](CO)C(=O)N[C@@H](CO)C(=O)N[C@H](C(=O)N[C@@H](CC(N)=O)C(=O)N[C@H](C(=O)NCC(=O)N[C@@H](Cc1c[nH]cn1)C(=O)N[C@@H](CC(N)=O)C(=O)N[C@H](C(=O)N[C@@H](Cc1ccc(O)cc1)C(N)=O)[C@@H](C)O)C(C)C)[C@@H](C)O
B2: N^ε1-[(4S)-4-carboxy-4-(19-carboxynonadecanoylamino)butanoyl]-[Ala14,Arg17,Pro21,Pro27,Pro34]-h-amylin (peptide)
peptide: K([γGlu-C20 diacid])CNTATCATQRLAAFLRHSSPNFGAIPSSTNVGPNTY-NH2
modifications: disulfide 2-7; N-terminus assumed
SMILES: CC[C@H](C)[C@H](NC(=O)[C@H](C)NC(=O)CNC(=O)[C@H](Cc1ccccc1)NC(=O)[C@H](CC(N)=O)NC(=O)[C@@H]1CCCN1C(=O)[C@H](CO)NC(=O)[C@H](CO)NC(=O)[C@H](Cc1c[nH]cn1)NC(=O)[C@H](CCCNC(=N)N)NC(=O)[C@H](CC(C)C)NC(=O)[C@H](Cc1ccccc1)NC(=O)[C@H](C)NC(=O)[C@H](C)NC(=O)[C@H](CC(C)C)NC(=O)[C@H](CCCNC(=N)N)NC(=O)[C@H](CCC(N)=O)NC(=O)[C@@H](NC(=O)[C@H](C)NC(=O)[C@@H]1CSSC[C@H](NC(=O)[C@@H](N)CCCCNC(=O)CC[C@H](NC(=O)CCCCCCCCCCCCCCCCCCC(=O)O)C(=O)O)C(=O)N[C@@H](CC(N)=O)C(=O)N[C@@H]([C@@H](C)O)C(=O)N[C@@H](C)C(=O)N[C@@H]([C@@H](C)O)C(=O)N1)[C@@H](C)O)C(=O)N1CCC[C@H]1C(=O)N[C@@H](CO)C(=O)N[C@@H](CO)C(=O)N[C@H](C(=O)N[C@@H](CC(N)=O)C(=O)N[C@H](C(=O)NCC(=O)N1CCC[C@H]1C(=O)N[C@@H](CC(N)=O)C(=O)N[C@H](C(=O)N[C@@H](Cc1ccc(O)cc1)C(N)=O)[C@@H](C)O)C(C)C)[C@@H](C)O
notes: also called compound 94
B3: N^ε1-[(4S)-4-carboxy-4-(17-carboxyheptadecanoylamino)butanoyl]-[Arg17,Pro21,Pro27,His34]-h-amylin (peptide)
peptide: K([γGlu-C18 diacid])CNTATCATQRLANFLRHSSPNFGAIPSSTNVGHNTY-NH2
modifications: disulfide 2-7; N-terminus assumed
SMILES: CC[C@H](C)[C@H](NC(=O)[C@H](C)NC(=O)CNC(=O)[C@H](Cc1ccccc1)NC(=O)[C@H](CC(N)=O)NC(=O)[C@@H]1CCCN1C(=O)[C@H](CO)NC(=O)[C@H](CO)NC(=O)[C@H](Cc1c[nH]cn1)NC(=O)[C@H](CCCNC(=N)N)NC(=O)[C@H](CC(C)C)NC(=O)[C@H](Cc1ccccc1)NC(=O)[C@H](CC(N)=O)NC(=O)[C@H](C)NC(=O)[C@H](CC(C)C)NC(=O)[C@H](CCCNC(=N)N)NC(=O)[C@H](CCC(N)=O)NC(=O)[C@@H](NC(=O)[C@H](C)NC(=O)[C@@H]1CSSC[C@H](NC(=O)[C@@H](N)CCCCNC(=O)CC[C@H](NC(=O)CCCCCCCCCCCCCCCCC(=O)O)C(=O)O)C(=O)N[C@@H](CC(N)=O)C(=O)N[C@@H]([C@@H](C)O)C(=O)N[C@@H](C)C(=O)N[C@@H]([C@@H](C)O)C(=O)N1)[C@@H](C)O)C(=O)N1CCC[C@H]1C(=O)N[C@@H](CO)C(=O)N[C@@H](CO)C(=O)N[C@H](C(=O)N[C@@H](CC(N)=O)C(=O)N[C@H](C(=O)NCC(=O)N[C@@H](Cc1c[nH]cn1)C(=O)N[C@@H](CC(N)=O)C(=O)N[C@H](C(=O)N[C@@H](Cc1ccc(O)cc1)C(N)=O)[C@@H](C)O)C(C)C)[C@@H](C)O
B4: N^ε1-[(4S)-4-carboxy-4-(15-carboxypentadecanoylamino)butanoyl]-[Arg17,Pro21,Pro27,His34]-h-amylin (peptide)
peptide: K([γGlu-C16 diacid])CNTATCATQRLANFLRHSSPNFGAIPSSTNVGHNTY-NH2
modifications: disulfide 2-7; N-terminus assumed
SMILES: CC[C@H](C)[C@H](NC(=O)[C@H](C)NC(=O)CNC(=O)[C@H](Cc1ccccc1)NC(=O)[C@H](CC(N)=O)NC(=O)[C@@H]1CCCN1C(=O)[C@H](CO)NC(=O)[C@H](CO)NC(=O)[C@H](Cc1c[nH]cn1)NC(=O)[C@H](CCCNC(=N)N)NC(=O)[C@H](CC(C)C)NC(=O)[C@H](Cc1ccccc1)NC(=O)[C@H](CC(N)=O)NC(=O)[C@H](C)NC(=O)[C@H](CC(C)C)NC(=O)[C@H](CCCNC(=N)N)NC(=O)[C@H](CCC(N)=O)NC(=O)[C@@H](NC(=O)[C@H](C)NC(=O)[C@@H]1CSSC[C@H](NC(=O)[C@@H](N)CCCCNC(=O)CC[C@H](NC(=O)CCCCCCCCCCCCCCC(=O)O)C(=O)O)C(=O)N[C@@H](CC(N)=O)C(=O)N[C@@H]([C@@H](C)O)C(=O)N[C@@H](C)C(=O)N[C@@H]([C@@H](C)O)C(=O)N1)[C@@H](C)O)C(=O)N1CCC[C@H]1C(=O)N[C@@H](CO)C(=O)N[C@@H](CO)C(=O)N[C@H](C(=O)N[C@@H](CC(N)=O)C(=O)N[C@H](C(=O)NCC(=O)N[C@@H](Cc1c[nH]cn1)C(=O)N[C@@H](CC(N)=O)C(=O)N[C@H](C(=O)N[C@@H](Cc1ccc(O)cc1)C(N)=O)[C@@H](C)O)C(C)C)[C@@H](C)O

Tests used:
[1] = target: T1, rat amylin receptor (rat calcitonin …); test: SPA competition vs 125I-rat amylin, membranes (Assay VI)
rat calcitonin receptor [2] = target: T2, rat calcitonin receptor; test: SPA competition vs 125I-calcitonin, membranes (Assay VIII)
rat calcitonin receptor [3] = target: T2, rat calcitonin receptor; test: ratio of IC50 on rat calcitonin receptor to IC50 on rat amylin receptor
[4] = target: T3, human calcitonin receptor; test: ratio of IC50 on human calcitonin receptor to IC50 on human amylin receptor
Protocol: The resulting pellet was resuspended, homogenized and centrifuged (20.000 rpm, 15 min) in a buffer containing 20 mM Na-HEPES and 0.1 mM EDTA (pH 7.4, buffer 2). The resulting pellet was resuspended in buffer 2 and protein concentration was measured (BCA protein Assay, Pierce). The homogenate was kept cold during the whole procedure. The membranes were kept at −80° C. until use. The assay was performed in a 384 well Optiplate (PerkinElmer) in a total volume of 40 ul. Membranes were mixed with SPA beads. Final concentration of membranes 35 ng/μL final and SPA beads was 0.05 mg/well. Test-compounds were dissolved in DMSO and further diluted in assay buffer (50 mM Hepes, pH 7.4, 1 mM CaCl2, 5 mM MgCl₂, 0.1% OA and 0.02% Tween20). […] The final mixture was incubated with shaking at 400 rpm for 120 min at 25° C. prior to centrifugation (1500 rpm, 10 min). Samples were analyzed on TopCounter™ (Packard). The IC₅₀ was calculated using (one site binding competition analysis) GraphPad Prism5 as a measure of receptor affinity.
Membranes were prepared in the following way; the cells were rinsed with PBS and incubated with Versene for approximately 5 min before harvesting. The cells were flushed with PBS and the cell-suspension was centrifuged for 5 min at 1000 rpm. Cells were homogenized (Ultrathurrax) in a buffer containing 20 mM Na-HEPES and 10 mM EDTA (pH 7.4) and centrifuged at 20.000 rpm for 15 min. The resulting pellet was resuspended, homogenized and centrifuged (20.000 rpm, 15 min) in a buffer containing 20 mM Na-HEPES and 0.1 mM EDTA (pH 7.4, buffer 2). The resulting pellet was resuspended in buffer 2 and protein concentration was measured (BCA protein Assay, Pierce). The homogenate was kept cold during the whole procedure. The membranes were kept at −80° C. until use. Assay was performed in a 384 well Optiplate (PerkinElmer) in a total volume of 40 ul. Membranes were mixed with SPA beads.

| Binder | IC50 [1] | IC50 (rat calcitonin receptor [2]) | Ratio rCT/rAmylin binding (rat calcitonin receptor [3]) | Ratio hCT/hAmylin binding [4] |
| --- | --- | --- | --- | --- |
| B1 | 2.52 nM | 707 nM | 280 | 23.5 |
| B2 | 0.397 nM | 111 nM | 280 | 46.3 |
| B3 | 1.17 nM | 47 nM | 40.3 | 59.4 |
| B4 | 1.24 nM | 404 nM | 327 | 18.5 |
